Measured values reported in the supplement of paper PMC9170038.

Tested on: MS2 coat protein
Assay: apparent KD of MS2 coat protein; designed switch direction (-1 OFF switch, 1 ON switch): -1; higher = weaker reporter binding
Outline: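 Normalised cluster fluorescence was curve-fitted, and each design's median over clusters is its apparent KD. Before this, SNAP-549-labelled MS2 coat protein was titrated from 0.7 or 1.5 nM, doubling to 3 µM, over RNA switches transcribed on Illumina chips by stalled E. coli RNA polymerase. Titrations had no input, 200 uM small-molecule ligand, or an oligonucleotide input, and steps lasted 0.8–1.5 h (lowest) to 10–20 min (highest).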

[1] = input ligand: microRNA oligo, concentration not stated
[2] = Eterna round: R95, input ligand: FMN 200 uM
[3] = Eterna round: R95, input ligand: microRNA oligo, concentration not stated
[4] = Eterna round: R95, input ligand: none

Sequence	apparent KD of MS2 coat protein [1]	apparent KD of MS2 coat protein (input ligand: FMN 200 uM)	apparent KD of MS2 coat protein (input ligand: none)	apparent KD of MS2 coat protein [2]	apparent KD of MS2 coat protein [3]	apparent KD of MS2 coat protein [4]
UACAUGAGGAUCACCCAUGUUUUGUCGUGUAUGGUAUUUAUCUAGGAUAUCAAUUUGUAUAUUUAUGAGAAGGAGAAUAUUAAU [JMF's solution 67] (Eterna round: R96, puzzle: Exclusion NG 3)	30.7 nM	–	–	–	–	–
CAGUACUGAGGAUAUACAUGAGGAUCACCCAUGUGUUCCAGCUAGGAAACUAGCACUUGUAGAAGGCAGUACUG [Ex3: 830] (Eterna round: R96, puzzle: Exclusion 3)	21.6 nM	458 nM	26.7 nM	–	–	–
GAUUAUGCGAGCUUUAGGGACAUGAGGAUCACCCAUGUUCGUCUUAUUAAUCUAGGUGCACUGACAUACCUAAAUCU [JMF 87] (puzzle: Sensor v3, turn-off variant 1)	–	–	–	20.7 nM	30 nM	21.7 nM
CCUCAUAUUUAGGAUAUGAUUGGUAAUUAUUAGUUAGAAGGAGAUACAUGAGGAUCACCCAUGUAAUAUUUAAA [-11.7, -11.3 kcal, 36% A] (Eterna round: R97, puzzle: Exclusion 6)	–	20.3 nM	19.5 nM	–	–	–
AAGAAACGAGGAUAUACAAUUAAGAGAGAGAAGGAAAUGAGACAUGAGGAUCACCCAUGUAGAAGGCGUAAGAG [JR_Exclu2_Sub083] (puzzle: Exclusion 2)	–	–	–	28 nM	31.5 nM	28.2 nM
CAGUACUGCAGGCUUCGGGACAUGAGGAUCACCCAUGUUCGUCUUAUUGAUCUAGGUACGCUGACGUACCUAGAUCU [JL-sv1-2.16 Brourd mod] (puzzle: Sensor v3, turn-off variant 1)	–	–	–	16.7 nM	18.6 nM	15.4 nM
GUGGUGGGUUUUCCGAGUGACAUGAGGAUCACCCAUGUGUUAGUUUGAGGUAUCAAGCGAAUGGCUCGUCUUAUGUG [JR_SV3TOV1_Sub046] (puzzle: Sensor v3, turn-off variant 1)	–	–	–	140 nM	21.2 nM	154 nM
UCCUCACAUGAGGAUCACCCAUGUCAGGAUAUCCAACAUGCUCCCAAAACCACGCAUCGGAGAAGGGACAUGCA [EX1 A.6] (Eterna round: R97, puzzle: Exclusion 1)	–	21.7 nM	17.7 nM	–	–	–
GGGAGUGAAGGAUAUACAUGAGGAUCACCCAUGUGGGAGGAGAGAGGUGAGGAGGCUGGUAGAAGGUCAGGAUG [JR_Exclusion3_Sub006] (puzzle: Exclusion 3)	–	–	–	–	48.3 nM	–
GUGCAACAUGAGGAUCACCCAUGUUAGGAUAUGUCCUUGGAGACGCACUAGCUCUGAGACAGAAGGGACAGAGG [Eternabot (Original) Solution 34] (Eterna round: R97, puzzle: Exclusion 1)	–	69.9 nM	51.2 nM	–	–	–
CCAGAGGAAGGAUAUUAAGGCGUAUACAUGAGGAUCACCCAUGUCCUACACUUCGCACUAUAAGAAGGUUCCCGGA [Eternabot (Original) Solution 39] (Eterna round: R97, puzzle: Exclusion 5)	–	193 nM	121 nM	–	–	–
CCGGCUUAGGAGGAUAUAGGAGUCGAUAGACACCUAGAAGGCCUAACAUGAGGAUCACCCAUGUGACCUACCGG [Mod of Eli 28 - Jieux - Exclusion 6] (Eterna round: R97, puzzle: Exclusion 6)	–	132 nM	28.6 nM	–	–	–
GCAUCCAAAGUGAGGAUAUACCUCUGGAUACAGAGGUAGAAGGCACAUGAGGAUCACCCAUGUUCCUAGGAUGC [Fiskers BMX 4 - 38] (puzzle: Brourd's mod of Exclusion 4)	–	–	–	–	13.3 nM	–
AAUUAUUGAUGAGGAUAUUGUGGUGAAACACGACGAGAAGGCAUAUGUCACAUGAGGAUCACCCAUGUGAGCCUUGUGCAUAUA [Ex NG1 #64] (Eterna round: R96, puzzle: Exclusion NG 1)	15.8 nM	–	–	–	–	–
CAUUAUGUUGAGGAUAUGCGCCGGCUCGCUGGCGCAGAAGGCGACACAUGAGGAUCACCCAUGUCAGUUCGCGA [salish99_ex6_r004_418] (Eterna round: R97, puzzle: Exclusion 6)	–	13.3 nM	8.87 nM	–	–	–
GCAAGUUUUUUGUUUUUUAACAUGAGGAUCACCCAUGUAUUUUUAUAGUAUGUGUGAUUAAGAUCUUGUGGUCUUAG [JR_SV3TOV1_Sub101] (puzzle: Sensor v3, turn-off variant 1)	–	–	–	59.1 nM	92.2 nM	62.9 nM
CGGAUGUAAGGAUAUUAGUAGUAGUCAGAAUAGACUAUUACUGAGAAGGUACAUGAGGAUCACCCAUGUUUCCG [Eli x4 4.18] (Eterna round: R97, puzzle: Exclusion 4)	–	27.5 nM	16.8 nM	–	–	–

Sequence	apparent KD of MS2 coat protein [1]	apparent KD of MS2 coat protein (input ligand: FMN 200 uM)	apparent KD of MS2 coat protein (input ligand: none)	apparent KD of MS2 coat protein [2]	apparent KD of MS2 coat protein [3]	apparent KD of MS2 coat protein [4]
GACUGGACAGGAUAUGUUCUUGAGCACUUGAGGAUCACCCAAGUCAUCAAGAACUCAGGCACAGAAGGGUUUAUGC [salish99_ex5_r4_011] (Eterna round: R97, puzzle: Exclusion 5)	–	19.5 nM	13.7 nM	–	–	–
AAUGAGCAAGUCAGGAUAUUAAGCCACAGCUGGCGUAAGAAGGGACAUGAGGAUCACCCAUGUUCAUCCAAUGG [Eternabot (Original) Solution 15] (Eterna round: R97, puzzle: Brourd's mod of Exclusion 4)	–	24.5 nM	15.9 nM	–	–	–
AGGUGUAGAGGAUAUACUGCAAAGCACAUGAGGAUCACCCAUGUCCCUCUAUGAAAUUAAGUAGAAGGCUACACCA [Omei Ex5 C5] (Eterna round: R97, puzzle: Exclusion 5)	–	88.6 nM	77.1 nM	–	–	–
AUCUUGAUAGGAUAUACAUGAGGAUCACCCAUGUCCCACCCGUUACCUCUGGCCCUAUGUAGAAGGAUCGUCUA [Exy#20] (Eterna round: R97, puzzle: Exclusion 3)	–	50.5 nM	68.5 nM	–	–	–
AUCAGCUCGUGAGGAUAUAUAUUAACAUGAGGAUCACCCAUGUAAGAUCAGCUUCGGCAGUUAAUAUAGAAGGCACGAGCUGAU [ENG2/14-A2] (Eterna round: R96, puzzle: Exclusion NG 2)	98.8 nM	151 nM	114 nM	–	–	–
GCUUUUGGGCAAGGAUAUCCUGCGCGGUUCCGGUUCGUGUCUGUCACAUGAGGAUCACCCAUGUGGGAGAAGGUGCCUGCGGUG [Design 73] (Eterna round: R96, puzzle: Exclusion NG 2)	11.7 nM	21.5 nM	19 nM	–	–	–
UAUAUAUAGUAAGGAUAUGUAUAUAUUUUACAAACAGAAGGUACUGACAUGAGGAUCACCCAUGUUUUAGUGUGGGCAUGUAGA [JMF's solution 68] (Eterna round: R96, puzzle: Exclusion NG 1)	43.3 nM	–	–	–	–	–
GUGACCAUAGGAUAUACAUGAGGAUCACCCAUGUGCAGGCCGAAAGACCUGCGGUCAUGUAGAAGGAUGUAAUU [EX3 A.17] (Eterna round: R97, puzzle: Exclusion 3)	–	19.6 nM	16.4 nM	–	–	–
UUGUUUUCCGCAGGAUAUGCUCCUCCAUUACUAGCAGAAGGGCGUUGAACAUGAGGAUCACCCAUGUAUGUAAUUGCUUAUUGC [JR_ExcNG1_Sub073] (Eterna round: R96, puzzle: Exclusion NG 1)	14.8 nM	19.7 nM	18.9 nM	–	–	–
GGUGCGUAUGUGAGGAUAUGCUGGUCCUUGGAUCGGCAGAAGGCACAUGAGGAUCACCCAUGUGGUGUCGUACG [salish99_Bmod_ex4_078] (puzzle: Brourd's mod of Exclusion 4)	–	–	–	–	51.8 nM	–
CAGUACUGAGGAUAUACAUGAGGAUCACCCAUGUGCUUCAGCUAGGAUACUAGCAUUAGUAGAAGGCAGUACUG [Fiskers Ex 3 828 mod 13] (Eterna round: R96, puzzle: Exclusion 3)	10.8 nM	81 nM	13.9 nM	–	–	–
ACAUGUGUUGUAGGAUAUAGGAGACAUGAGGAUCACCCAUGUUGAUUCAUGUCUAUGGAAACGUCCUAGAAGGACGACAAUAUG [Ex NG2 #19] (Eterna round: R96, puzzle: Exclusion NG 2)	179 nM	283 nM	272 nM	–	–	–
GAGAACUGAGGAUAUACAUGAGGAUCACCCAUGUGAAGAAGAAAGUAGUGAUGGUUGGGUAGAAGGCAGAGAGA [JR_Ex3_Sub065] (Eterna round: R97, puzzle: Exclusion 3)	–	52.4 nM	46.3 nM	–	–	–
CUUUUGUGAGGAUAUCAUUAGUAAAUAAAUAAAAUUACUACUGAGAAGGCACAUGAGGAUCACCCAUGUUCCUC [salish99_ex3_r3_072] (puzzle: Exclusion 4)	–	–	–	–	31.8 nM	–
CCGACAAGCUGCUAAGGAUACAUGAGGAUCACCCAUGUCGGUAUCCGAGAGGUAUUGAAGUCAACCAUCGCUCGUCU [Eternabot (Original) Solution 49] (Eterna round: R97, puzzle: Sensor, turn-off variant 1)	–	167 nM	188 nM	–	–	–
AUCGUAGCAGGAUAUCCGGAGAUUGACAUGAGGAUCACCCAUGUGGUCAUGCCAGCCAAUGGAGAAGGGUUUCGGU [Eternabot (L1) Solution 49] (Eterna round: R97, puzzle: Exclusion 5)	–	618 nM	637 nM	–	–	–
GUAAAGUGAGGAUAUGGUAAAUUAAUUAUUAAUUAAUUAAUCCAGAAGGCACAUGAGGAUCACCCAUGUUAAUG [Mat - Exclusion 4 - D89] (puzzle: Exclusion 4)	–	–	–	50.9 nM	28.6 nM	34.5 nM
